Laboratory results taken from US20190345255A1.

Experiments:
[1] = target: Mouse recombinant MGL2 (macrophage galactose binding lectin 2) (mouse); experiment: competition ELISA on MGL2-coated plate; 10 µg/mL Tn-BSA against 10 µg/mL biotinylated Tn-PS A1 probe 25a (a polysaccharide) as competitor
[2] = target: Mouse recombinant MGL2 (macrophage galactose binding lectin 2) (mouse); experiment: competition ELISA on MGL2-coated plate; 10 µg/mL Tn-BSA against 10 µg/mL biotinylated TF-PS A1 probe 25b (a polysaccharide) as competitor
[3] = target: Tn-BSA (Tn antigen conjugated to bovine serum albumin) (bovine) (UniProt P02769); experiment: ELISA titration of purified IgM, Tn-BSA coated plates
Sequence of UniProt P02769 (P02769 25-607 limits assumed, form in doubt): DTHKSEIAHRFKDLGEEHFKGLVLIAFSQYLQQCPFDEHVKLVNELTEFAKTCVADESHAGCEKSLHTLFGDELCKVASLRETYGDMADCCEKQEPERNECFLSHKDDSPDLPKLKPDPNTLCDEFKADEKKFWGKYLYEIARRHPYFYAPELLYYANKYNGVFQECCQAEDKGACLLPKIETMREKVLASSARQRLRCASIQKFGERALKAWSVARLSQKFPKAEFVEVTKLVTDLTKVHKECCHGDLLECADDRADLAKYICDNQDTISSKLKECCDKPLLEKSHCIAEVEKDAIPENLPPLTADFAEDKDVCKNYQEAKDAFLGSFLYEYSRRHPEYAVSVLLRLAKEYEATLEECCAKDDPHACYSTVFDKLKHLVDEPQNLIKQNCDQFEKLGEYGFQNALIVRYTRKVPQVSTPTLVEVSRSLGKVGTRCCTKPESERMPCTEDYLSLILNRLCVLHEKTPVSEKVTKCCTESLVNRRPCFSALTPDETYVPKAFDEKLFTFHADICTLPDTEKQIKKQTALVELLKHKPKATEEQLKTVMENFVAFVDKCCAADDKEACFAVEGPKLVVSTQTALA

Row | percent inhibition [1] | percent inhibition [2] | optical density (O.D.) at 0.3 µg/mL antibody [3] | Molecule
1 | 44% | 64% | – | Tn-BSA (Tn antigen conjugated to bovine serum albumin) (from UniProt P02769 25-607)
2 | – | – | > 0.2 O.D. | Kt-IgM-8 (antibody, V domains shown) VH: QIQLVQSGPELKKPGETVKISCKASGYTFTTYGMSWVKQAPGKGLKWMGWINTYSGVPTYADDFKGRFAFSLETSASTAYLQINNLKNEDTATYFCARHYYGGAYWGQGTLVTVSA VL: QIVLTQSPAIMSASPGEKVTMTCSASSSVSYMHWYQQKSGTSPKRWIYDTSKLASGVPARFSGSGSGTSYSLTISSMEAEDAATYYCQQWSSNPLTFGAGTKLELK
